The text below walks through data of paper PMC5802723, “Pro-metastatic collagen lysyl hydroxylase dimer assemblies stabilized by Fe^2+-binding” (Nature Communications, 2018).

Data set [1] addresses bovine skin collagen substrate containing no telopeptides (Bovine PureCol) (bovine) (UniProt P02453).
In data set [2] the target is L230 LH domain (amino acids 680-895), wild type (Acanthamoeba polyphaga mimivirus). Briefly: SAXS; L230 LH domain in solution, three concentrations diluted from 6 mg/ml, merged; SIBYLS beamline.
For data set [3] the target is unchanged. Briefly: SEC-MALS; L230 variants, 3 mg/ml, 150 ul, Superdex 75; 20 mM Tris pH 8, 200 mM NaCl, 0.02% sodium azide, room temperature. (In general: In gel filtration, larger molecules generally elute earlier.)
Data set [4] shares this target. Briefly: MST; Atto647-labelled L230 (40 nM, 10 ul) mixed with equal volume of unlabelled L230 (8.5 uM-0.5 nM); incubated at 25 °C for 15 min, measured at 20 °C; dimer to monomers.
Data set [5] deals with the molecule itself. Nature of the data set: SEC-MALS; Human LH2 proteins, 2 mg/ml, 100 ul, Superdex 200; 20 mM Tris pH 8, 200 mM NaCl, 0.02% sodium azide, room temperature.

Sequence of bovine skin collagen substrate containing no telopeptides (Bovine PureCol) (bovine) (P02453 162-1217, chain 1 of 2): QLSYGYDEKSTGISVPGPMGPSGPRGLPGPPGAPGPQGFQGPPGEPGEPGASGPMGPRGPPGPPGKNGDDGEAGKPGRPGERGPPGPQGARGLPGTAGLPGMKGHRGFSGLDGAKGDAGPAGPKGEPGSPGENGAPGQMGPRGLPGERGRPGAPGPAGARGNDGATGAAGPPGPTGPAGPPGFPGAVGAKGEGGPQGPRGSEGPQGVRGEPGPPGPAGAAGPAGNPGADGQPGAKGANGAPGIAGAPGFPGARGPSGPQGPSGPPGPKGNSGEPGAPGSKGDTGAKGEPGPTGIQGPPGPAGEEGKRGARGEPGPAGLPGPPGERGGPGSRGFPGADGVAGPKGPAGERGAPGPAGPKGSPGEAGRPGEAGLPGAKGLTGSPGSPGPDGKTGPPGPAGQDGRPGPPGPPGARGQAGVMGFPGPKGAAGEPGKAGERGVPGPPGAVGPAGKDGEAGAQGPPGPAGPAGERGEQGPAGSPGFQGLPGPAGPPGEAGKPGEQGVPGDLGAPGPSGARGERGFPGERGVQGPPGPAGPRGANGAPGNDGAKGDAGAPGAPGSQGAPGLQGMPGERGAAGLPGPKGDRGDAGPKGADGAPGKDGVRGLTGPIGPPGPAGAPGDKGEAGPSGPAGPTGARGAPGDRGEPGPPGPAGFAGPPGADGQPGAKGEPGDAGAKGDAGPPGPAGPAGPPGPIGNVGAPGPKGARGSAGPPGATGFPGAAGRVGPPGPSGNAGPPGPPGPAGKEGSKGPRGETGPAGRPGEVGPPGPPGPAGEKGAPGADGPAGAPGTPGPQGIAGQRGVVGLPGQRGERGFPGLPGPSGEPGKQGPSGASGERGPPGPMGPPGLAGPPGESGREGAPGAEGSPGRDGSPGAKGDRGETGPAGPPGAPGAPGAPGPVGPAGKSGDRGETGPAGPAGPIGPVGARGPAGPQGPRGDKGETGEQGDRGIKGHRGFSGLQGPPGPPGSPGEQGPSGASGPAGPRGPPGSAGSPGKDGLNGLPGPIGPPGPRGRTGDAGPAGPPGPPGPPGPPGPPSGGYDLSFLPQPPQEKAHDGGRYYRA
Sequence of bovine skin collagen substrate containing no telopeptides (Bovine PureCol) (bovine) (P02465 80-1117, chain 2 of 2, further chain): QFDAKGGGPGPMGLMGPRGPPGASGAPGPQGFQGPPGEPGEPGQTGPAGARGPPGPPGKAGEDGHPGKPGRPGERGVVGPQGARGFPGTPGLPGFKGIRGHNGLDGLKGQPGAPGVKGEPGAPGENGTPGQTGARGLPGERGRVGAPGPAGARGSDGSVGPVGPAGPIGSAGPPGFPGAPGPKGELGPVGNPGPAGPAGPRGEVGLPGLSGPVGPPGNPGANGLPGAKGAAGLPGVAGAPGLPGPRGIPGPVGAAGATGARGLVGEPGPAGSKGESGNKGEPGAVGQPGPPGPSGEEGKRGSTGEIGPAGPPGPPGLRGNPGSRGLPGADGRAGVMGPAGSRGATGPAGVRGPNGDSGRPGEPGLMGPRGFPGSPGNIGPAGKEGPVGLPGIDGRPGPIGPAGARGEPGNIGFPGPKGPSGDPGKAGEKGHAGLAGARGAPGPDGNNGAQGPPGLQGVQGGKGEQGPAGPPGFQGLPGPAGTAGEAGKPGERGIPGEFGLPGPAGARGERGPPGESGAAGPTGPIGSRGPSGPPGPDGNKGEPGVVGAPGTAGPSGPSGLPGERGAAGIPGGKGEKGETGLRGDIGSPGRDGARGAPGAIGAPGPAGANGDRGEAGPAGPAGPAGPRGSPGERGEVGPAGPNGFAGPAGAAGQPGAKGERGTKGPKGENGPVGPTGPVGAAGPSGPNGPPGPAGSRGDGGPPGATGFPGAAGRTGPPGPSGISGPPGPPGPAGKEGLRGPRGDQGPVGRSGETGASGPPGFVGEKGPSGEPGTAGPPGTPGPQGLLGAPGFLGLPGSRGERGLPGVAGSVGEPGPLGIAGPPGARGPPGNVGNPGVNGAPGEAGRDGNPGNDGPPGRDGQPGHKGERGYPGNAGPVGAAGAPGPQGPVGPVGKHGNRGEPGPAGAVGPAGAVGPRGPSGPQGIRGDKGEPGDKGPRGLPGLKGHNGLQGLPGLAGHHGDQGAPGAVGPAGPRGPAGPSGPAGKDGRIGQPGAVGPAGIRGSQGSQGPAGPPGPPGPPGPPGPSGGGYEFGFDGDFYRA

Consider “L230 LH domain (amino acids 680-895) K804E (domain or fragment)”, for which, in data set [1], the estimated Km for bovine skin collagen in the enzymatic assay (succinate production); achievable collagen concentrations did not saturate activity is 9.6 µM.

Regarding “L230 LH domain (amino acids 680-895), wild type (domain or fragment)”, the stoichiometry N in data set [2] and in data set [3] was 2 throughout. Further, in data set [1], the estimated Km for bovine skin collagen in the enzymatic assay (succinate production); achievable collagen concentrations did not saturate activity was 2.6 µM. In data set [4], the Kd (commonly a measure of binding affinity in units of concentration) amounted to 23.9 nM.

B1: Human LH2 recombinant protein (residues 33-758), wild type (enzyme, UniProt O00469-2 33-758, looked up)
chain: SIPTDKLLVITVATKESDGFHRFMQSAKYFNYTVKVLGQGEEWRGGDGINSIGGGQKVRLMKEVMEHYADQDDLVVMFTECFDVIFAGGPEEVLKKFQKANHKVVFAADGILWPDKRLADKYPVVHIGKRYLNSGGFIGYAPYVNRIVQQWNLQDNDDDQLFYTKVYIDPLKREAINITLDHKCKIFQTLNGAVDEVVLKFENGKARAKNTFYETLPVAINGNGPTKILLNYFGNYVPNSWTQDNGCTLCEFDTVDLSAVDVHPNVSIGVFIEQPTPFLPRFLDILLTLDYPKEALKLFIHNKEVYHEKDIKVFFDKAKHEIKTIKIVGPEENLSQAEARNMGMDFCRQDEKCDYYFSVDADVVLTNPRTLKILIEQNRKIIAPLVTRHGKLWSNFWGALSPDGYYARSEDYVDIVQGNRVGVWNVPYMANVYLIKGKTLRSEMNERNYFVRDKLDPDMALCRNAREMTLQREKDSPTPETFQMLSPPKGVFMYISNRHEFGRLLSTANYNTSHYNNDLWQIFENPVDWKEKYINRDYSKIFTENIVEQPCPDVFWFPIFSEKACDELVEEMEHYGKWSGGKHHDSRISGGYENVPTDDIHMKQVDLENVWLHFIREFIAPVTLKVFAGYYTKGFALLNFVVKYSPERQRSLRPHHDASTFTINIALNNVGEDFQGGGCKFLRYNCSIESPRKGWSFMHPGRLTHLHEGLPVKNGTRYIAVSFIDP
notes: Human lysyl hydroxylase 2 (LH2), residues 33-758; the printed end at 758 and the residues D689 and L735 fit the 758-residue isoform; also called lysyl hydroxylase 2; source: ExpiCHO cells, transient transfection, secreted
B1: the binding result in data set [5] was “binds”.
